Measurements published in US20200131473.

System: ETAA1-ATR activating domain (ETAA1-AAD)
Sequence (chain, as listed by the source): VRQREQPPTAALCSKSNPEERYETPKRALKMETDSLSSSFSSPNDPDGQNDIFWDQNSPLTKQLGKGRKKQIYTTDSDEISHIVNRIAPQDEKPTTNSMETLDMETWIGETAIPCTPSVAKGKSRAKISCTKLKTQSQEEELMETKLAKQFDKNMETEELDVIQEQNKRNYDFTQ

Chain of ATR (ATM and Rad3-related kinase) (chain, as listed by the source): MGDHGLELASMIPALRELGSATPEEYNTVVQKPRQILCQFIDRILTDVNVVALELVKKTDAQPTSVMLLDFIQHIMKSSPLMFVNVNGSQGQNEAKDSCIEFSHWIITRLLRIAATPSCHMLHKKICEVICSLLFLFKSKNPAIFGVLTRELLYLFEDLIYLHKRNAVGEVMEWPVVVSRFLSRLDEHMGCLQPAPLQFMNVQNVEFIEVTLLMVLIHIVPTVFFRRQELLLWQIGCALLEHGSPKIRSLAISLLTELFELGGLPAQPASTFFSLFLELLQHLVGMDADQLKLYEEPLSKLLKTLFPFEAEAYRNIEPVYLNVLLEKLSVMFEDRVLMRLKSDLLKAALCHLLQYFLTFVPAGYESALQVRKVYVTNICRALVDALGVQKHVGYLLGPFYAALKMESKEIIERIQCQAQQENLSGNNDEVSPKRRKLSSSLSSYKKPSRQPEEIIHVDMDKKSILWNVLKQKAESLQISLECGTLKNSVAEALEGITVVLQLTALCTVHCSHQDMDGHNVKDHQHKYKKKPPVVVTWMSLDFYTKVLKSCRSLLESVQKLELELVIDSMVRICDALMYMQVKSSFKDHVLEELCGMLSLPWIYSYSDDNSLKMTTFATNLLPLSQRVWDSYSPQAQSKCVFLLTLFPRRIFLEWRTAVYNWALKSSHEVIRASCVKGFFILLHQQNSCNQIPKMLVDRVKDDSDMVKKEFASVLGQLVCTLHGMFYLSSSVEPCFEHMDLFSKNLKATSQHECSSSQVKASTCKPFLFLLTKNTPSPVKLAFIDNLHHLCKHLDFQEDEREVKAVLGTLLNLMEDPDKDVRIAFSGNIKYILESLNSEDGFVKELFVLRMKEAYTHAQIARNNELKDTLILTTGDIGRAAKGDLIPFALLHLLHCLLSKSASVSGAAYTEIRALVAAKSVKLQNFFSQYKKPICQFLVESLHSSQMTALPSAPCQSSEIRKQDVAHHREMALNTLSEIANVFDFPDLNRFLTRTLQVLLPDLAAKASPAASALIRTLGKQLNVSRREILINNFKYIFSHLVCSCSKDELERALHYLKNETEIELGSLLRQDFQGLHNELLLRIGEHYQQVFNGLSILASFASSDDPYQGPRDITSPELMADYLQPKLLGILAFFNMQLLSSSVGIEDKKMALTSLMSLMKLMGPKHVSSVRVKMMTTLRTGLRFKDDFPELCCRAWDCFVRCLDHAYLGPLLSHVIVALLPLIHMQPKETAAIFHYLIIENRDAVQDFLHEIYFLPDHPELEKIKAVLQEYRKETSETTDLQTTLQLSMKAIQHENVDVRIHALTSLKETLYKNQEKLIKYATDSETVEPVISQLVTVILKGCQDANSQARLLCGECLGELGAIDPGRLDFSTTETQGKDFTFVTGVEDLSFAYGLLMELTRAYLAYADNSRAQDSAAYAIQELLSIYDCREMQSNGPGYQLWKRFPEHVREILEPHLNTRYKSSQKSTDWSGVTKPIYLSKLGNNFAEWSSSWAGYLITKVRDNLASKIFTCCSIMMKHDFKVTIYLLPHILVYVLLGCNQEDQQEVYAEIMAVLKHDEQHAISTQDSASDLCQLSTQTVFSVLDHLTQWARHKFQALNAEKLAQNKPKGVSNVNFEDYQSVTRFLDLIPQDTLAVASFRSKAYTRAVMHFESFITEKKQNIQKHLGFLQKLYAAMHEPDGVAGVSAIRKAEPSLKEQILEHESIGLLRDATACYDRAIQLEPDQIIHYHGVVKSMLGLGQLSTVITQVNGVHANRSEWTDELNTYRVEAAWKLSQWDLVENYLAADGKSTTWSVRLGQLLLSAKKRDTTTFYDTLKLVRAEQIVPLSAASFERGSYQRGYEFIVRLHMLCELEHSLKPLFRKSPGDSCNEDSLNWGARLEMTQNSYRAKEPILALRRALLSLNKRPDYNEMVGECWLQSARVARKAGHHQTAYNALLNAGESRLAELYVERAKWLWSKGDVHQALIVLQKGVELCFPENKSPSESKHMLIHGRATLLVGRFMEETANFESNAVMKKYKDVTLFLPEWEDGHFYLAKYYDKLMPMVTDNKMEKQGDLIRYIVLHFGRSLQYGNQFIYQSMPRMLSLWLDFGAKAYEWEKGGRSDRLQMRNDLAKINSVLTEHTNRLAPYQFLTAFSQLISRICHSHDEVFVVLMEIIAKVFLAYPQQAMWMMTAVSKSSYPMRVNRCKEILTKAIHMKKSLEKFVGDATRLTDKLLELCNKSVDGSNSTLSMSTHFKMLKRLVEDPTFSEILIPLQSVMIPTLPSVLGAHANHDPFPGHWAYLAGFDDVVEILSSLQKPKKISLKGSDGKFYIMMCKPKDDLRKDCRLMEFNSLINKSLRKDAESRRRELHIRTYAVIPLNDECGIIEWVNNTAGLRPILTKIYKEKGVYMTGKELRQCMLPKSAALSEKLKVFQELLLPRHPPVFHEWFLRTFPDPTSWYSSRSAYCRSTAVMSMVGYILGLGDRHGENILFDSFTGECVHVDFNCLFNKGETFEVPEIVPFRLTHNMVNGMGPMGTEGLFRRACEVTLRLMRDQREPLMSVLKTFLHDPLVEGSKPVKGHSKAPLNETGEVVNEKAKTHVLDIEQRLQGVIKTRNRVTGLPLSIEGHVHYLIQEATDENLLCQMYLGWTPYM

In the case of ATR (ATM and Rad3-related kinase), the “phosphorylation of H2AX, CHK1 and CHK2 (immunoblot and FACS in Dox-iETAA1 ESCs)” value is reported as “ATR activation through ETAA1 expression leads to the phosphorylation of H2AX and CHK1 but not CHK2 in ESCs”.
